# Measurements published in patent US20070004909A1.
# Molecular target: soluble CD16A (sCD16A) (UniProt P08637)
# Experiment: SPR (BIAcore 1000); receptor amine-coupled (~1000 RU), scFv as analyte; units not printed (koff/kon implies nM)
# soluble CD16A (sCD16A), sequence (P08637 17-208 limits assumed): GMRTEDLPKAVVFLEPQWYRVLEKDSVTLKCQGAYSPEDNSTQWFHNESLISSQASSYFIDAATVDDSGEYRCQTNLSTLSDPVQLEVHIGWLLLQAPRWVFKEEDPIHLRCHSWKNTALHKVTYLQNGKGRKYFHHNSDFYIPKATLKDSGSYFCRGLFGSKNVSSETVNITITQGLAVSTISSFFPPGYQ
substance,measurement,value
h3G8 scFv,Kd,38.7 nM
